Data from patent US20150098900A1 (Genentech, published 2015).

How the values were obtained:
[1] = molecular target: T1, human FcRH5c (full length human FcRH5) (human, UniProt Q96RD9 16-977); test: FACS, OPM2 cells transfected with human FcRH5, anti-mouse Alexa-647; negative control
T1 construct: Used on transfected SVT2, 293, EJM and OPM2 cells and endogenously on MOLP-2 cells and CD19+ B cells; also called IRTA2c; huFcRH5
T1 sequence: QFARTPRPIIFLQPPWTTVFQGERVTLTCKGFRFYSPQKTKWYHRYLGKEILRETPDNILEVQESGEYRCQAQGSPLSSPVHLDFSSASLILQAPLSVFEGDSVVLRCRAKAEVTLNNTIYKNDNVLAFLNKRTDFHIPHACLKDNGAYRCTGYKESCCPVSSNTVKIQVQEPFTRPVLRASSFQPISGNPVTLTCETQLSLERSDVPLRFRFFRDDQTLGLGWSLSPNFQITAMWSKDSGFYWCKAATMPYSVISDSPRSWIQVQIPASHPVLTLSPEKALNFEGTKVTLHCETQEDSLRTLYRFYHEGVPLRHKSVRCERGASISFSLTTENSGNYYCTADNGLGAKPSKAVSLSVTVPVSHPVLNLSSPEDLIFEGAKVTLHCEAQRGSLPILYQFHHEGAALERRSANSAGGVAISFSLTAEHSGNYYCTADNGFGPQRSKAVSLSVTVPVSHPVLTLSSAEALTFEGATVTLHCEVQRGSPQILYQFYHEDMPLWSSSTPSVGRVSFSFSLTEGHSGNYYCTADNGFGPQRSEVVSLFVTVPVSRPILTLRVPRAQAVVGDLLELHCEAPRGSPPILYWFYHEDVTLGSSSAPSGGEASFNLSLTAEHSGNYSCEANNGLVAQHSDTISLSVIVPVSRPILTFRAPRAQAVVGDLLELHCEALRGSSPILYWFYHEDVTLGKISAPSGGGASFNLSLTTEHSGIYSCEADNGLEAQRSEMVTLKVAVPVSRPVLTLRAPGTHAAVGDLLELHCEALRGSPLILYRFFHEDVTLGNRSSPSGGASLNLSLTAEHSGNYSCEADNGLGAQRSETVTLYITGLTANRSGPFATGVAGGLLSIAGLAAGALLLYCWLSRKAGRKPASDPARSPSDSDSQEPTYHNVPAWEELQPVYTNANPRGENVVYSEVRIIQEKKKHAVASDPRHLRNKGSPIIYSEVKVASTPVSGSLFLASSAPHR

[2] = molecular target: T1, human FcRH5c (full length human FcRH5); test: FACS, EJM cells transfected with human FcRH5, anti-mouse Alexa-647; negative control
[3] = molecular target: T1, human FcRH5c (full length human FcRH5); test: FACS, MOLP2 cells (endogenous FcRH5), 4 ug/ml; legend printed under FIG. 3E
Experimental: (§1) To test binding to endogenously FcRH5 expressing cancer cells or FcRH5 transfected cancer cells, cells were lifted using EDTA/PBS. 1×10⁵ cells were suspended in 100 ul and incubated […] with primary antibodies (1 volume of non-IgG quantitated subclone supernatant, 4 ug/ml IgG quantified subclone supernatant or […] purified monoclonal antibodies). Cells were washed twice with FACS buffer (PBS 1% BSA 2 mM EDTA) and incubated with 1:1000 dilution of goat anti-mouse secondary labeled with PE or 1:100 of goat anti-mouse APC. Cells were washed twice with FACS buffer and Flow cytometry analysis was done on a FACSCalibur. Direct […] of antibodies was done according to manufacturer's protocol (Invitrogen), when indicated. To analyze binding to NK or B cells, 1 million human PBMC were incubated with 4 ug/ml IgG quantified subclone supernatants for 60 min, washed and incubated with 1:100 dilution of goat anti-mouse secondary labeled with APC. Cells were then washed again twice and stained using anti-CD56 (PE; BD Biosciences #555516) and anti-CD19 (PE; BD Biosciences #340364) prior flow cytometry and analysis of binding to human CD56+ and CD19+ cells.

[4] = molecular target: T1, human FcRH5c (full length human FcRH5); test: FACS, 293 cells with wild type FcRH5c, supernatants 2.5 ug/ml, anti-mouse PE
Experimental: Two separate tests were designed to address dependency of binding on the presence of membrane proximal Ig-domain 9 (E11). First a truncated human FcRH5c mutant was generated that lacks Ig-domains 6-9 (amino acids 464-850 of SEQ ID NO:1) including the expected binding site for the antibodies derived from E11 immunization. This construct with N-terminal gD-tag was expressed in 293 cells and subjected to 2.5 ug/ml subclone supernatants followed by PE labeled goat anti-mouse secondary antibody (1:1000 dilution). None of the tested subclones bound to 293 cells that express the truncated human FcRH5c (FIG. 4A). In contrast binding was detected to 293 cells that express wild type human FcRH5c. Binding of gD or non-isoform selective antibody clone (10A8) was not altered by the mutation.

[5] = molecular target: T2, soluble FcRH5a isoform with C-terminal HIS-expression tag (human, UniProt Q96RD9-3 16-759); test: ELISA, His-tagged soluble FcRH5a captured by anti-His, anti-mouse HRP, OD 650
T2 construct: mature; also called IRTA2a
T2 sequence (looked up): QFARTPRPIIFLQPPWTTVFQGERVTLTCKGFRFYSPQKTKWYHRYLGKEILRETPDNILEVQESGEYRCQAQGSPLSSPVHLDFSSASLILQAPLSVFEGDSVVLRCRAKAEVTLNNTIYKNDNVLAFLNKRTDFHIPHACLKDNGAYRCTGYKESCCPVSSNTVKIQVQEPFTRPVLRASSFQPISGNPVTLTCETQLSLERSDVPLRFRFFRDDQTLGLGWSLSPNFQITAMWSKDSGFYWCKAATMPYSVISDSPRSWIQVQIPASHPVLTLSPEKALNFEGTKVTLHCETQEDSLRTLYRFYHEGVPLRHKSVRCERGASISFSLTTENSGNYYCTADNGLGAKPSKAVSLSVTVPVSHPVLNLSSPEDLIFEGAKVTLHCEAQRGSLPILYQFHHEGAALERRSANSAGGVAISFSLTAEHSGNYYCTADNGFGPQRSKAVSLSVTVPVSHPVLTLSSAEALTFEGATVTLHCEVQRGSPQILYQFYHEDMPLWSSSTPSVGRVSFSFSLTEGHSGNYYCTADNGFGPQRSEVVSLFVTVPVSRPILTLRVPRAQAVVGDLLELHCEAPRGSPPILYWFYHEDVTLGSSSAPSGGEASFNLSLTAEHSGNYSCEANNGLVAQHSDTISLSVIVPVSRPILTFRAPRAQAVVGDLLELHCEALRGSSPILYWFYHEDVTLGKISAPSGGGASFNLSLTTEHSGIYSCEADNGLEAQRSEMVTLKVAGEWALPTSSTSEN
Experimental: For this, 293 cells were transfected to express the soluble isoform with C-terminal HIS-expression tag. Expression of FcRH5a protein was confirmed with Western blot analysis using anti-HIS antibody. A 65 kD band was detected in conditioned media from FcRH5a but not vector transfected cells (not shown). For the ELISA, plates were coated with anti-HIS capture antibody and incubated 1 hour with 1:10 diluted conditioned media including the HIS-tagged soluble FcRH5a isoform. The E11 monoclonal antibodies were used for detection in 1-0.001 ug/ml concentration, incubated for 1 hour followed by incubation with goat anti-mouse HRP antibody and finally with TMB-substrate.

[6] = molecular target: T3, FcRH3 endogenously expressed on human NK cells (CD56+ cells of PBMC) (human, UniProt Q96P31 18-734); test: FACS, CD56+ NK cells of human PBMC, anti-mouse APC
T3 construct: whole, on cells; FcRH1 was also detected on CD56+ cells; also called endogenously expressed FcRH3
T3 sequence (looked up): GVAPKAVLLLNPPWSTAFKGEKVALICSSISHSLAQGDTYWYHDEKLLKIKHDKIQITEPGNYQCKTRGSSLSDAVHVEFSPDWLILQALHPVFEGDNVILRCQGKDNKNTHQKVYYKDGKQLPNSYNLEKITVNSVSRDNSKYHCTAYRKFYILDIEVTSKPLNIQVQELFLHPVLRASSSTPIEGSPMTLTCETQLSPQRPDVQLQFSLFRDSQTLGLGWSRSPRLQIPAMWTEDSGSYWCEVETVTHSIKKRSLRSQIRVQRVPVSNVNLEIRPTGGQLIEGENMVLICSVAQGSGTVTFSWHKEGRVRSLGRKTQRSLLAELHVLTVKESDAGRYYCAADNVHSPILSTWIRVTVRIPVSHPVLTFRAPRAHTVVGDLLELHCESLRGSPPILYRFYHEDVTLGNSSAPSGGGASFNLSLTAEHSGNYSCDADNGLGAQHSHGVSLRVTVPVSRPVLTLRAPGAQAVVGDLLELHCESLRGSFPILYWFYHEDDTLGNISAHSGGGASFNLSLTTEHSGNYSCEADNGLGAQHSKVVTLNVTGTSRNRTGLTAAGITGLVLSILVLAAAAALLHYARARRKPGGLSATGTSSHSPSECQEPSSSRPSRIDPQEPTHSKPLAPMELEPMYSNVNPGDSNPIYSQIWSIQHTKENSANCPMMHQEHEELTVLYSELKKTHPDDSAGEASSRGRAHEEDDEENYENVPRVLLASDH
Experimental: as §1
Since the overall signal in the FcRH3-expressing SVT2 cells was low, further testing was done using PBMCs from healthy donors. […]

[7] = molecular target: T1, human FcRH5c (full length human FcRH5); test: FACS, APC-labelled antibodies on SVT2 cells with full-length human FcRH5
[8] = molecular target: T1, human FcRH5c (full length human FcRH5); test: FACS, MOLP2 cells (endogenous FcRH5), 4 ug/ml
Experimental: as §1

mIgG (antibody)
Mean:FL4-H [1]: 6.43
Mean:FL4-H [2]: 10.3

B1: 5F1.1.5 (antibody, IgG2a, V domains shown)
VH: QVQLQQSGADLVRPGTSVKVSCKASGYAFTNYLIEWVKQRPGQGLEWIGVINPGSGGTNYNEKFKGKATLTADKSSSTAYMQLSSLTSDDSAVYFCARTRNYGYVIDYWGQGTTLTVSSASTKGPSVFPLAP
VL: QAVVTQESALTTSPGETVTLTCRSSTGTVTTSNFANWVQEKPDHLFTGLIGGTSNRAPGVPARFSGSLIGDKAALTITGAQTEDEAIYFCVLWCSNLWVFGGGTKLTVLGQPKAA
notes: parent 5F1 and subclone 5F1.1 treated as the same antibody; also called 5F1.1.mIgG2a
binding result [3]: binds

B2: 2H7.3 (antibody, IgG2b, V domains shown)
VH: EVQLQQSGPELWKPGASVKMSCKASGYTFTDYYMKWVKQTHGKSLEWIGDINPNNGETFYSQKFKGKATLTVDKSSTTAYMQLNSLTSEDSAVYYCARGLYRFDYWGQGTTLTVSSASTKGPSVFPLAP
VL: EIVLTQSPATLSVTPGDSVSLSCRASQNIRNNLHWYQQKSHESPRLLIKFTSQSISGIPSRFTGSGSGTDFTLSINSVETEDFGMYFCQQSNNWPQYTFGGGTKLEIKRTVAA
notes: Parent 2H7, subclone 2H7.3 and purified antibody treated as one; also called 2H7.3.mIgG2b
binding result [4]: binds
binding result [5]: binds

B3: 5A10.1.3 (antibody, IgG2b, V domains shown)
VH: EVQLQQSGPELWKPGASVKMSCKASGYTFTDYYMKWVKQSHGKSLEWIGDINPNNGETFYNQKFKGKATLTVDKSTSTAYMELNSLTTEDSAVYYCARGLYRFDYWGQGTTLTVSSAASTKGPSVFPLAP
VL: DIVLTQSPANLSVIPGDSVSLSCRASQNIRNNLHWYQQKSQESPRLLIKFASQSMSGTPSRFTGSGSGTDFTLTINTVETEDFGMYFCQQSNNWPQYTFGGGTKLEIKRTVAA
notes: parent 5A10 and subclone 5A10.1 treated as the same antibody; also called 5A10.1.mIgG2b
EC50 (read off the curve) [5]: ~0.02 ng/mL

B4: 1G7.2 (antibody, IgG1, V domains shown)
VH: EVQLQESGPGLVQPSQSLSITCTVSGFSLTRFGVHWVRQSPGKGLEWLGVIWRGGSTDYNAAFMSRLTITKDNSKSQVFFKLNSLKVDDTAIYYCSNHYYGSSDYALDNWGQGTSVTVSSASTKGPSVFPLAP
VL: DIVMTQSHKIMSTSVGDRVSITCKASQDVSNIVVWFQQKPGQSPNLLIYSASYRYTGVPDRFTGSGSGTDFTFTISSVQAEDLAVYYCQQHYSSPYTFGGGTKLEIKRTVAA
notes: Parent 1G7, subclone 1G7.2 and purified 1G7.2.mIgG1 treated as one antibody; also called 1G7.2.mIgG1
binding result [6]: no binding (tested: 4 ug/ml)
binding result [5]: no binding
binding result [7]: binds

B5: 3G7.1.5 (antibody, IgG2a, V domains shown)
VH: EVQLQQSGPELVKPGASVKMSCKASGYTFTDYYMKWVRQNHGKRLEWIGDINPYNGDTFYNQKFKDKATLTVDKSSSTAYMQFNSLTSEDSAVYYCARGLYFFHYWGQGTTLTVSSASTKGPSVFPLAP
VL: DIVLIQSPATLSVTLGGSVSLSCRASQSISNNLHWYQQKSHESPRLLIKFASQSISGIPSRFRGSGSGTDFTLTINSVETEDFGIYFCQQSNNWPQYTFGGGTKLELKRTVAA
notes: parent 3G7 and subclone 3G7.1 treated as the same antibody; also called 3G7.1.mIgG2a
binding result [8]: binds
